The target in assay [1] is transmembrane mutant TNFα expressed on the surface of CHO cells (UniProt P01375). Description: cell-based or functional assay.
Assay [2] has as its target human TNFα (Tumor Necrosis Factor-alpha), soluble (human) (UniProt P01375). As to the kind of experiment: cell-based or functional assay.
The target in assay [3] is monkey (cynomolgous macaque) GST-TNFα (cynomolgous macaque) (UniProt P79337). As to the kind of experiment: ELISA, plate coated with 2 µg/ml monkey (cynomolgus macaque) GST-TNFα, HRP goat anti-human IgG detection. (In general: ELISA stands for enzyme-linked immunosorbent assay.)
monkey (cynomolgous macaque) GST-TNFα (cynomolgous macaque), sequence (P79337 77-233): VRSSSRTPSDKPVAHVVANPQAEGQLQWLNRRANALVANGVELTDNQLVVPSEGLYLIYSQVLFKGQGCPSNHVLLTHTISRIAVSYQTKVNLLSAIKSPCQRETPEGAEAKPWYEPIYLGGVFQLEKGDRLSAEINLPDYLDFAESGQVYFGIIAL

human TNFα (Tumor Necrosis Factor-alpha), soluble (human), sequence (P01375 77-233): as the sequence (P79337 77-233) above, with V37L, T44R, N72T, L138R counted along it
transmembrane mutant TNFα expressed on the surface of CHO cells, sequence (P01375 whole entry, change not shown, form in doubt): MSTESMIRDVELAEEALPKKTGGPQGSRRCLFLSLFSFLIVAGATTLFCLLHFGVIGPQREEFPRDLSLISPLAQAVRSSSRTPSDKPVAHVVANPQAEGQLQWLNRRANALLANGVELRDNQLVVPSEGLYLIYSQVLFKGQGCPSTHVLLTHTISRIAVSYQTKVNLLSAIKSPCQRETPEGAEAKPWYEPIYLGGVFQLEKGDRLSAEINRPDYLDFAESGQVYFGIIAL

Turning to irrelevant human IgG1 control antibody, in assay [1], the ADCC (%) was determined as 2% and the CDC (%) is 2%.

Usually EC50 (read off the curve) stands for the concentration at which the effect is half-maximal. In assay [2], Etanercept (Fc fusion) yielded an IC50 1 hr Pre-incubation, TNF induced apoptosis in MCF-7 cells of 0.0034 nM; an IC50 18 hr Pre-incubation, TNF induced apoptosis in MCF-7 cells of 0.0022 nM; an In vivo Potency (IC50), ALT, hTNFα/D-GalN hepatic injury in mice of 27 nM; an In vivo Potency (IC50), human TNFα-induced IL-6 in mice of 27 nM. The EC50 (read off the curve) in assay [3] was 3 ng/mL.

(Values after US20050049402A1.)
